From patent publication US20250019737A1 (TECHNOLOGY INNOVATION MOMENTUM FUND ISRAEL LIMITED …, published 2025)

Target: T1, Ubiquitin R42E, R72E, untagged free mono-Ub (Homo sapiens (Human), UniProt P0CG47 1-76)
T1 construct: also called Ub R42E, R72E
Test: SPR, immobilized His6-MBP-ENTH on Ni2+ chip, Ub mutant as analyte, single-site model

fold lower affinity than the wild-type complex: ~2.6 fold
B1: His6-MBP-ENTH, ENTH domain of yeast Ent1(1-152) (other, yeast (Saccharomyces cerevisiae), UniProt Q12518 1-152, looked up, not shown: small tags and cut ends; large carriers)
chain: MSKQFVRSAKNLVKGYSSTQVLVRNATSNDNHQVSKDSLIELAEKSYDSADFFEIMDMLDKRLNDKGKYWRHIAKALTVIDYLIRFGSENCVLWCRENLYIIKTLKEFRHEDDEGIDQGQIVRVKAKELTALLSDDERLNEERNMNIKGRNR
notes: range 1-152; also called yeast ENTH
